Measurements reported in patent publication US11059864B2, “Chimeric antigen receptor (CAR) modulation” (TRUSTEES OF BOSTON UNIVERSITY, priority 2019, dated 2021).
Residue numbers refer to the chain shown, from its start.

What was measured:
Jurkat T cells = assay: NS3 OFF CAR: CD69 levels in Jurkat cells (components on separate vectors); type: cell-based; settings: Jurkat cells expressing OFF-switch components; presence of grazoprevir
Experimental: (§1) FIG. 8A-8D is a series of schematics and graphs showing testing of variations of the NS3 OFF CAR in Jurkat T cells. […] Combinations of components were tested as indicated. Each was introduced on a separate vector.
(§2) Two different versions of the first component (c and d) and four different versions of the second component of the OFF-switch (i, ii, iii, and iv) were tested in Jurkat T cells. […] The OFF-switch CARs can also function when expressed in a single vector (see e.g., FIG. 9A-9C, FIG. 10A-10D).

NFAT = assay: NS3 OFF CAR: NFAT-GFP levels in Jurkat T cells (components on separate vectors); type: cell-based; settings: Jurkat T cells expressing two-component OFF-switch; presence of grazoprevir
Experimental: as §1
NS3 CAR OFF switches, comprising first and second components, were constructed as described herein. The first component comprises a peptide, which is specific for the NS3 of the second component, thus bringing the two components together.
as §2

[1] = test system: Her2-expressing NALM cells; assay: Cell killing by Her2-specific NS3 CAR CD8+ T cells; type: cell-based, human
Experimental: FIG. 3A-3B is a series of graphs. FIG. 3A is a bar graph showing the killing efficiency of CD8+ T cells following expression of the NS3 CAR constructs or traditional CAR, in the presence or absence of GZV.
To further evaluate the downstream effector function of NS3 CAR T cells, their cell killing abilities were tested. Her2-specific NS3 CAR CD8+ T cells were mixed with Her2-expressing NALM cells at a 1:1 ratio and the extent of cell killing determined.
By varying the dose of NS3 inhibitor, the level of CD8+ T cell-mediated killing could be modulated.

NS3a-genotype 1b = NS3a-genotype 1b (Hepatitis C virus genotype 1b, UniProt P26662, S1165A); settings: read-out: affinity of basal complex with NS3a-genotype 1b; cited from earlier work
Chain of NS3a-genotype 1b (P26662 1029-1207 D1056E/L1062V/P1112Q/M1120L/V1140I/I1158V/S1165A/V1176A/I1196V): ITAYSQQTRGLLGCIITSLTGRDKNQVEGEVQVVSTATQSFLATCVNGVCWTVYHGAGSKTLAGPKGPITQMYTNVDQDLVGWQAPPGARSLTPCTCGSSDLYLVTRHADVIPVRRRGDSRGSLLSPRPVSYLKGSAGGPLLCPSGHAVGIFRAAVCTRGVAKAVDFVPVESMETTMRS

apo NS3a = molecular target: T1, apo NS3a (Hepatitis C virus genotype 1a, UniProt P27958); settings: cited from earlier work
T1 construct: comprise the N-terminal 180 amino acids of the NS3 protein
T1 sequence (P27958 1027-1208): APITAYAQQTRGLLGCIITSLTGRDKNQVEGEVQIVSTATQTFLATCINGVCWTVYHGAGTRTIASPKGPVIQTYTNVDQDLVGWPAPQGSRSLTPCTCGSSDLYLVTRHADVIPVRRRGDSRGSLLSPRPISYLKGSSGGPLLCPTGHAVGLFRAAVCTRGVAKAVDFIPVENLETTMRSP

asunaprevir-bound NS3a = molecular target: T2, asunaprevir-bound NS3a (Hepatitis C virus genotype 1a, UniProt P27958); settings: cited from earlier work
T2 construct: comprise the N-terminal 180 amino acids of the NS3 protein
T2 sequence (P27958 1027-1208): as above

grazoprevir/NS3a complex = settings: cited from earlier work
Chain of grazoprevir/NS3a complex (P27958 1027-1208, one chain of several): as the sequence (P27958 1027-1208) above

NS3a/danoprevir complex = molecular target: T3, NS3a/danoprevir complex (Hepatitis C virus genotype 1a, UniProt P27958); settings: cited from earlier work
T3 construct: comprise the N-terminal 180 amino acids of the NS3 protein
T3 sequence (P27958 1027-1208, one chain of several): as the sequence (P27958 1027-1208) above

Her2+ target NALM cells [2] = assay: IL-2 and IFN-gamma cytokine release by CD4+ and CD8+ primary T cells expressing NS3 CARs; type: cell-based; settings: human CD4+ and CD8+ primary T cells; presence or absence of grazoprevir and/or Her2+ target NALM cells
Text: (§3) FIG. 2A-2B is a series of bar graphs. FIG. 2A is a series of bar graphs showing CD69 expression in CD4+ and CD8+ T cells following expression of the NS3 CAR constructs or traditional CAR, in the presence or absence of GZV (Grazoprevir) and/or target cell. FIG. 2B is a series of bar graphs showing CD4+ and CD8+ T cell IL-2 and IFN-gamma cytokine release following expression the NS3 CAR constructs or traditional CAR, in the presence or absence of GZV and/or target cell.
(§4) These CARs were introduced into human CD4+ and CD8+ primary T cells and tested for functionality by mixing with Her2+ target NALM cells. As a readout for NS3 CAR control over T cell activity, levels of CD69 (an early T cell activation marker) and cytokine release (indicative of downstream effector function) were measured. It is expected that in the absence of grazoprevir (an NS3 inhibitor), the CAR is dismantled, rendering it non-functional. Once grazoprevir is added, the full CAR is assembled, thus allowing the T cell to activate when Her2-expressing target cells are present (see e.g., FIG. 1B).

Her2+ target NALM cells [3] = assay: CD69 expression in CD4+ and CD8+ primary T cells expressing NS3 CARs mixed with target cells; type: cell-based; settings: human CD4+ and CD8+ primary T cells; presence or absence of grazoprevir and/or Her2+ target NALM cells
Text: as §3, §4

For `C=C[C@@H]1C[C@]1(NC(=O)[C@@H]1C[C@@H]2CN1C(=O)[C@H](C(C)(C)C)NC(=O)O[C@@H]1C[C@H]1CCCCCc1nc3ccc(OC)cc3nc1O2)C(=O)NS(=O)(=O)C1CC1` [grazoprevir], the CD69 levels (Jurkat T cells) was “diminished to baseline”, the NFAT-GFP levels (NFAT) was “diminished to baseline” and the “cell killing ability versus level of NS3 inhibitor” value ([1]; CD8+ T cells expressing the V2 NS3 CAR, 1:1 ratio, NS3 inhibitor varied between 0 uM-5 uM) was “can be used to regulate the level of killing efficiency”. For the same molecule, the “killing efficiency versus concentration of Grazoprevir” value ([1]; traditional CAR T cells or wild-type cells) was “does not impact traditional CAR T cells or wild-type cells”.

For “apo NS3a reader peptide GELDELVYLLDGPGYDPIHSD, SEQ ID NO: 204 [ANR]”, the Kd (NS3a-genotype 1b) is listed as 10 nM.

B1: GNCR1: grazoprevir/NS3 complex reader domain, SEQ ID NO: 105, 233 aa (protein)
chain: DIEKLCKKAEEEAKEAQEKADELRQRHPDSQAAEDAEDLANLAVAAVLTACLLAQEHPNADIAKLCIKAASEAAEAASKAAELAQRHPDSQAARDAIKLASQAARAVILAIMLAAENPNADIAKLCIKAASEAAEAASKAAELAQRHPDSQAARDAIKLASQAAEAVERAIWLAAENPNADIAKKCIKAASEAAEEASKAAEEAQRHPDSQKARDEIKEASQKAEEVKERCKS
For B1, the “binding to apo NS3a” value (apo NS3a) is given as “little to no affinity”, the “binding of NS3 in the presence of asunaprevir (asunaprevir-bound NS3a)” value (“binding of NS3 … (asunaprevir-bound NS3a)” for short) (asunaprevir-bound NS3a) is given as “little to no affinity” and the Kd (grazoprevir/NS3a complex; read-out: affinity for the grazoprevir/NS3a complex) is given as 140 nM. For the same molecule, the “binding of NS3 in the presence of danoprevir (danoprevir-bound NS3a)” value (from here on “binding of NS3 … (danoprevir-bound NS3a)”) (NS3a/danoprevir complex) was “little to no affinity”.

B2: G5: reader domain, SEQ ID NO: 208 (named G3 in the sequence listing), 233 aa (protein)
chain: B1 chain with L42E, V44E, T49A, L52S
In the case of B2, the “binding of NS3 … (asunaprevir-bound NS3a)” value (asunaprevir-bound NS3a) is listed as “some binding”, the “binding of NS3 in the presence of grazoprevir” value (“binding of NS3 … of grazoprevir” below) (grazoprevir/NS3a complex) is listed as “moderate binding” and the “binding of NS3 … (danoprevir-bound NS3a)” value (NS3a/danoprevir complex) is listed as “no binding”.

B3: DNCR2: danoprevir/NS3 complex reader domain, SEQ ID NO: 101, 229 aa (protein)
chain: SSDEEEARELIERAKEAAERAQEAAERTGDPRVRELARELKRLAQEAAEEVKRDPSSSDVNEALKLIVEAIEAAVDALEAAERTGDPEVRELARELVRLAVEAAEEVQRNPSSSDVNEALHSIVYAIEAAIFALEAAERTGDPEVRELARELVRLAVEAAEEVQRNPSSRNVEHALMRIVLAIYLAEENLREAEESGDPEKREKARERVREAVERAEEVQRDPSGWLNH
For B3, the “binding to apo NS3a” value (apo NS3a) is given as “no detectable binding”, the “selectivity over NS3a bound to the drugs grazoprevir or asunaprevir” value (NS3a/danoprevir complex) is given as > 20,000 fold and the Kd (NS3a/danoprevir complex; read-out: affinity for the NS3a/danoprevir complex) is given as 0.036 nM.

B4: DNCR1: danoprevir/NS3 complex reader domain, SEQ ID NO: 207, 229 aa (protein)
chain: B3 chain with H121L, Y125I, I131V, F132H, N171E, R178K, L185E, N189S
For B4, the “binding of NS3 … (asunaprevir-bound NS3a)” value (asunaprevir-bound NS3a) is listed as “minimal binding”, the “binding of NS3 … of grazoprevir” value (grazoprevir/NS3a complex) is listed as “minimal binding” and the “binding of NS3 … (danoprevir-bound NS3a)” value (NS3a/danoprevir complex) is listed as “high binding”.

B5: Traditional CAR: traditional third-generation Her2 CAR without NS3; SEQ ID NO: 4, 37 (protein)
chain: ALPVTALLLPLALLLHAARPKYLLPTAAAGLLLLAAQPAMAQVQLVQSGAEVKKPGESLKISCKGSGYSFTSYWIAWVRQMPGKGLEYMGLIYPGDSDTKYSPSFQGQVTISVDKSVSTAYLQWSSLKPSDSAVYFCARHDVGYCTDRTCAKWPEYFQHWGQGTLVTVSSGGGGSGGGGSGGGGSQSVLTQPPSVSAAPGQKVTISCSGSSSNIGNNYVSWYQQLPGTAPKLLIYDHTNRPAGVPDRFSGSKSGTSASLAISGFRSEDEADYYCASWDYTLSGWVFGGGTKLTVLGGKPIPNPLLGLDSTNGAATTTPAPRPPTPAPTIALQPLSLRPEACRPAAGGAVHTRGLDFACDFWVLVVVGGVLACYSLLVTVAFIIFWVRSKRSRLLHSDYMNMTPRRPGPTRKHYQPYAPPRDFAAYRSKRGRKKLLYIFKQPFMRPVQTTQEEDGCSCRFPEEEEGGCELRVKFSRSADAPAYKQGQNQLYNELNLGRREEYDVLDKRRGRDPEMGGKPRRKNPQEGLYNELQKDKMAEAYSEIGMKGERRRGKGHDGLYQGLSTATKDTYDALHMQALPPR
In the case of B5, the “IL-2 and IFN-gamma cytokine release” value (Her2+ target NALM cells [2]) is reported as “no response to the NS3 inhibitor” and the CD69 expression (Her2+ target NALM cells [3]) is reported as “no response to the NS3 inhibitor”.

B6: D5: reader domain, SEQ ID NO: 206, 229 aa (protein)
chain: SSDEEEARELIERAKEAAERAQEAAERTGDPRVRELARELKRLAQEAAEEVKRDPSSSDVNEALKLIVEAIEAAVDALEAAERTGDPEVRELARELVRLAVEAAEEVQRNPSSSDVNEALLTIVIAIEAAVNALEAAERTGDPEVRELARELVRLAVEAAEEVQRNPSSREVNIALWKIVLAIQEAVESLREAEESGDPEKREKARERVREAVERAEEVQRDPSGWLNH
For B6, the “binding of NS3 … (asunaprevir-bound NS3a)” value (asunaprevir-bound NS3a) is given as “some binding”, the “binding of NS3 … of grazoprevir” value (grazoprevir/NS3a complex) is given as “moderate binding” and the “binding of NS3 … (danoprevir-bound NS3a)” value (NS3a/danoprevir complex) is given as “moderate binding”.
